These results are taken from the supplement of paper PMC12764529.

Data set [1] can be described thus: folding stability dG unfold from trypsin proteolysis; higher = more stable. Summed up: (§1)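 Sequencing followed digestion of designed mini-proteins with trypsin and chymotrypsin, each at 11 concentrations in threefold dilutions together with a no-protease condition. The mini-proteins were under 80 residues, had no cysteine, sat in a PA-tagged cDNA display construct, and were kept only if AlphaFold2 dimer inter-PAE was above 15. From the counts, Bayesian fitting gave K50, and unfolding free energy was derived against a sequence-predicted unfolded-state K50 and a shared folded-state K50, per protease or combined.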

Data set [2] can be described thus: folding stability dG unfold from chymotrypsin proteolysis; higher = more stable. Put shortly: as §1
A short description of data set [3]: folding stability dG unfold (combined trypsin and chymotrypsin); higher = more stable. Summed up:
as §1

± gives the half width of the 95% confidence interval. Where only a bound is given, the exact number is not on record here.

“SAGGSAGGSAWIPAKEIAKEIKAEYPPGKEREFRFPEEGWWIRIQVNKEGKPKVKVVPPEDISAGGSAGGSA [r18_61_TrROS]”: the “folding stability dG unfold” value in data set [1] stood at 0.103 ± 0.19 kcal/mol; in data set [2], 0.18 ± 0.17 kcal/mol; in data set [3], 0.109 ± 0.16 kcal/mol.
For “SAGGSAGGSAWITINDVRDYLKKEGIDPKNMSAEEIASEFKDKWPNVNIEAQPNGSAWIKPSAGGSAGGSAG [r3_375_TrROS]”, in that order: 0.785 ± 0.054 kcal/mol, 0.535 ± 0.36 kcal/mol and 0.814 ± 0.14 kcal/mol.
For “SAGGSAGGSAWMYRIKIEIYSNGKKHKYEFWIPEDNIDEVADQLPPGYKIKITDIEPWEPNSAGGSAGGSAG [r3_195_TrROS]”, in that order: 1.82 ± 0.022 kcal/mol, 2.73 ± 0.049 kcal/mol and 2.46 ± 0.14 kcal/mol.
For “SAGGSAGGSAYIPAEEIAEEVAAVLPPDEVALFPLPEKPLVVLVVREEDGVPRVLVLPPELASAGGSAGGSA [r18_61_TrMRF]”, in that order: 0.00934 ± 0.069 kcal/mol, 0.367 ± 0.093 kcal/mol and 0.261 ± 0.082 kcal/mol.
Consider “SAGGSAGGSAYTINIWVPPGMPKEEAADYIADWLHERHGIPDIKVSVEQDPDGMTKVTITVKSAGGSAGGSA [r18_1_TrROS]”, for which the results for the “folding stability dG unfold” value in data set [1], in data set [2] and in data set [3] were 2.32 ± 0.14 kcal/mol, 2.77 ± 0.033 kcal/mol and 2.52 ± 0.085 kcal/mol, respectively.
Taken in the same sequence, the figures for “SAGGSAGGSAYWRIKIFYPNNGREVTIHVPGSADDILDEAKPQFGYPPDNIKKIKIEPMDNSAGGSAGGSAG [r3_79_TrROS]” were -0.409 ± 0.33 kcal/mol, 0.783 ± 0.35 kcal/mol and 0.432 ± 0.21 kcal/mol.
For “SAGGSAGGSDETLTVTRGRTETVTVRRVERRPPAAAPPLKVTLSAVLDADGRLVSVSASVELLSAGGSAGGS [r12_727_TrROS_Hall]”, in that order: 2.1 ± 0.05 kcal/mol, 1.88 ± 0.036 kcal/mol and 1.9 ± 0.15 kcal/mol.
For “SAGGSAGGSDGVIQIPIKSDDGEEFKIEIPIEQIKKMMKEGRPIKIWLFDNGKMVRPFEIPIDSAGGSAGGS [r12_991_TrROS]”, in that order: 0.428 ± 0.12 kcal/mol, 1.06 ± 0.15 kcal/mol and 0.735 ± 0.19 kcal/mol.
With “SAGGSAGGSDPLVSFPLEVELPGGEKVELHFIPGPRLVIARFPDRPVLFYTDGDGVITRVDPISAGGSAGGS [r12_47_TrMRF]”, the figures for the “folding stability dG unfold” value in data set [1], in data set [2] and in data set [3] were 0.337 ± 0.059 kcal/mol, -0.362 ± 0.11 kcal/mol and 0.0465 ± 0.064 kcal/mol, respectively.
Taken in the same sequence, the figures for “SAGGSAGGSDPVPIVITYPDGSTSTTLEPDKIYITYPSKGLKYVVPIDLSTNKISFSLESSLPSAGGSAGGS [r12_539_JUSTAS]” were -0.699 ± 0.12 kcal/mol, -0.0759 ± 0.11 kcal/mol and -0.254 ± 0.08 kcal/mol.
Taken in the same sequence, the figures for “SAGGSAGGSDTVNVKVTVSFPPGTETKEITVNVPVVPGNPDVVKAKVDELAAAFPDAVVTAEKSAGGSAGGS [r12_795_TrMRF]” were 0.294 ± 0.078 kcal/mol, 1.99 ± 0.095 kcal/mol and 1.6 ± 0.12 kcal/mol.
Taken in the same sequence, the figures for “SAGGSAGGSDYLMIWIPPDALKGMPPGQEIEFEIKFNGGEYKVKIKVMPHENGHYMIMITVEPSAGGSAGGS [r12_433_TrROS]” were 3.2 ± 0.35 kcal/mol, 4.59 ± 0.3 kcal/mol and 4.06 ± 0.25 kcal/mol.
Regarding “SAGGSAGGSEEEVEIKVVEPVDVVVLPDGTVRRTFRVEDGALLVITVHFPPDGNPVGEIEIFPSAGGSAGGS [r20_240_TrMRF]”, the results for the “folding stability dG unfold” value in data set [1], in data set [2] and in data set [3] were 1.56 ± 0.032 kcal/mol, 1.64 ± 0.04 kcal/mol and 1.68 ± 0.16 kcal/mol, respectively.
Taken in the same sequence, the figures for “SAGGSAGGSEEEVEIVDVEIEEKDGKLVIRAKIRNKETGELYEVTLVFDKETGELHLEVRKLPSAGGSAGGS [r12_14_TrROS_Hall]” were 3.99 ± 0.097 kcal/mol, 3.78 ± 0.13 kcal/mol and 3.95 ± 0.15 kcal/mol.
Taken in the same sequence, the figures for “SAGGSAGGSEEVVVVEVEGELVVVTKEETVTVVPAPPPPPLTAEQRALAKELEKLGLEVEIRDSAGGSAGGS [r12_172_TrROS_Hall]” were -0.192 ± 0.16 kcal/mol, -0.505 ± 0.11 kcal/mol and -0.38 ± 0.37 kcal/mol.
Taken in the same sequence, the figures for “SAGGSAGGSEITIFIKGLPDPEAIADQIADAFGYPVKDVDVQRMPNNPWMMITVTYNGKEITISAGGSAGGS [r12_935_TrROS]” were 1.58 ± 0.022 kcal/mol, 1.97 ± 0.03 kcal/mol and 1.86 ± 0.083 kcal/mol.
Turning to “SAGGSAGGSEITITLDEETGELHITVPESVKEVKIKVNGEEKTVTLKPGQTLTIPLENVEIEESAGGSAGGS [r20_26_TrROS_Hall]”, the “folding stability dG unfold” value in data set [1] is 1.75 ± 0.11 kcal/mol; in data set [2], 1.55 ± 0.063 kcal/mol; in data set [3], 1.7 ± 0.2 kcal/mol.
Taken in the same sequence, the figures for “SAGGSAGGSEITLVFKTKEEAEKAAEELAKKYNVEVTVEENEETGLYVVTIKLPENGKEITILSAGGSAGGS [r12_635_TrROS_Hall]” were 1.68 ± 0.064 kcal/mol, 2.03 ± 0.059 kcal/mol and 1.96 ± 0.19 kcal/mol.
Taken in the same sequence, the figures for “SAGGSAGGSEKEGTLLVKLINPENPEEKVIPLKFKVKTKEDVDTFLENIKKKYPGVTVEVEDLSAGGSAGGS [r12_65_TrMRF]” were 0.659 ± 0.049 kcal/mol, 0.684 ± 0.21 kcal/mol and 0.643 ± 0.17 kcal/mol.
Taken in the same sequence, the figures for “SAGGSAGGSEKEIEIELPEGAEIVEIDEEKGVITVRVNGKLIEIEIKPVKVEKVEVELPPEEESAGGSAGGS [r12_243_TrROS_Hall]” were 2.77 ± 0.19 kcal/mol, 1.73 ± 0.13 kcal/mol and 2.4 ± 0.17 kcal/mol.
In the case of “SAGGSAGGSEKEIEVNGKKITIEKNEDGSYKLIIEVNGKKYEITLSLEELKKKNLTIEELLKKSAGGSAGGS [r20_90_TrROS_Hall]”, the “folding stability dG unfold” value in data set [1] stood at 1.92 ± 0.072 kcal/mol; in data set [2], 3.61 ± 0.13 kcal/mol; in data set [3] it was 3.26 ± 0.16 kcal/mol.
Taken in the same sequence, the figures for “SAGGSAGGSEKEVYVRNENGELYRFRAKAAPKLKLKLKLELERDENGNLSLRLELEVVSEEDLSAGGSAGGS [r12_1027_TrROS_Hall]” were 3.57 ± 0.14 kcal/mol, 5.18 ± 0.15 kcal/mol and 4.63 ± 0.4 kcal/mol.
For “SAGGSAGGSEKKFKIVSVKVEYNKETGTVTIEVEIYDEKTGKLVLKATITINKNGELKITLEPSAGGSAGGS [r12_115_TrROS_Hall]”, in that order: 3.9 ± 0.45 kcal/mol, 5.26 ± 0.46 kcal/mol and over 6 kcal/mol.
Taken in the same sequence, the figures for “SAGGSAGGSEKPEVEKITLEITLTDEDGNKHTIKVELVRNAKTKKYYLRITLEDGSEFVFEIDSAGGSAGGS [r12_286_TrROS_Hall]” were 3.88 ± 0.14 kcal/mol, 4.83 ± 0.14 kcal/mol and 4.71 ± 0.13 kcal/mol.
Take “SAGGSAGGSEKVTIRFPAKELRERFPNATPEQIADRIAKKFPNIKRIEVEQEPGYYRITVQVESAGGSAGGS [r12_590_TrROS]”: the “folding stability dG unfold” value in data set [1] was determined as 2.58 ± 0.12 kcal/mol; in data set [2], 1.49 ± 0.043 kcal/mol; in data set [3] it was 2.15 ± 0.12 kcal/mol.
“SAGGSAGGSELNIEKIVVLDYDPETGLAYVKIFYGDGEVKEFKVKSLEELKEKFPDVEILEKGSAGGSAGGS [r12_403_TrMRF]”: the “folding stability dG unfold” value in data set [1] was determined as 3.64 ± 0.12 kcal/mol; in data set [2], 4.57 ± 0.084 kcal/mol; in data set [3], 4.43 ± 0.065 kcal/mol.
With “SAGGSAGGSELPIKEITVTSYDPKTGKYTVTITQGEGPTYTTTATSPEEVKKRYPDVKVTTSGSAGGSAGGS [r12_403_JUSTAS]”, the “folding stability dG unfold” value came out at 0.434 ± 0.053 kcal/mol in data set [1], 0.786 ± 0.035 kcal/mol in data set [2] and 0.718 ± 0.056 kcal/mol in data set [3].
For “SAGGSAGGSEPVTVMFWFDSPEEIDELIDELKGAGIKKVEMEPFPGRYWLTITVDGAEIHIMFSAGGSAGGS [r12_846_TrROS]”, in that order: 2.45 ± 0.067 kcal/mol, 3.786 ± 0.031 kcal/mol and 3.29 ± 0.14 kcal/mol.
“SAGGSAGGSEPVVLTLPTPRGGRITITYDPSSNTATVTLPDGTVVTLSVTSVAEAKAAALAALSAGGSAGGS [r12_866_JUSTAS]”: the figures for the “folding stability dG unfold” value in data set [1], in data set [2] and in data set [3] were 3.18 ± 0.04 kcal/mol, 3.698 ± 0.018 kcal/mol and 3.515 ± 0.025 kcal/mol, respectively.
Taken in the same sequence, the figures for “SAGGSAGGSESKITILVLDEETQELYLIEVTLKYNPETGELETEMKIEKITLKPGEKLDLKDLSAGGSAGGS [r12_700_TrROS_Hall]” were 2.43 ± 0.2 kcal/mol, 3.28 ± 0.13 kcal/mol and 2.94 ± 0.2 kcal/mol.
As for “SAGGSAGGSETVTLELTLEDGRTLRIEFDPETQRLTVTFPDGSKQEIEVETLDDALAALLEALSAGGSAGGS [r12_866_TrROS_Hall]”, the “folding stability dG unfold” value in data set [1] came to 2.91 ± 0.11 kcal/mol; in data set [2], 3.81 ± 0.072 kcal/mol; in data set [3], 3.6 ± 0.062 kcal/mol.
Consider “SAGGSAGGSFEFPENRPNAKVKVVVQRPDGSPEEFEAEVLPDGTVTLDLPDYPIDRILSVEFGSAGGSAGGS [r12_477_TrMRF]”, for which the “folding stability dG unfold” value in data set [1] is 0.0306 ± 0.12 kcal/mol; in data set [2], -0.377 ± 0.19 kcal/mol; in data set [3] it was -0.221 ± 0.17 kcal/mol.
For “SAGGSAGGSFRIDPEKIEKVKHHRNPNGGGYHTIRLPGGPVKIPFRGMDPGDMEDQVKNFLKNSAGGSAGGS [r12_585_TrROS]”, in that order: 0.161 ± 0.11 kcal/mol, 0.267 ± 0.19 kcal/mol and 0.236 ± 0.14 kcal/mol.
For “SAGGSAGGSFVDPDGYKVIEFPIPMDDPGRIKEEVMDQFNLKDVKVEWEPTPGWYWVSIIVEPSAGGSAGGS [r12_929_TrROS]”, in that order: 0.74 ± 0.093 kcal/mol, 0.815 ± 0.16 kcal/mol and 0.832 ± 0.14 kcal/mol.
With “SAGGSAGGSGDDIPTLTLVIKVDPNAITPEDIEEIKQAFLDLGYKEVTVTRNPETGYLVVELGSAGGSAGGS [r12_1025_TrMRF]”, the “folding stability dG unfold” value in data set [1] worked out at 3.03 ± 0.25 kcal/mol; in data set [2], 2.93 ± 0.11 kcal/mol; in data set [3], 3.01 ± 0.21 kcal/mol.
